{
  "source": "patent US20220356230A1",
  "data": [
    {"molecular_target": "VSV G protein on VSV delta G pseudotyped virus-like particles (Vesicular stomatitis virus) (UniProt P03522)", "units": {"VSV-VLP Binding Signal (RLU)": "RLU"}, "values": [
      {"substance": "mAb10987 (antibody)", "VSV-VLP Binding Signal (RLU)": 1840},
      {"substance": "mAb10933 (antibody)", "VSV-VLP Binding Signal (RLU)": 507},
      {"substance": "mAb10934 (antibody)", "VSV-VLP Binding Signal (RLU)": 3880},
      {"substance": "mAb10936 (antibody)", "VSV-VLP Binding Signal (RLU)": 2320}
    ]}
  ]
}
